Experimental data as given in the DeepSol protein solubility set.

Assay: soluble on expression in E. coli; label from the status in PepcDB or PDB records

| Sequence | soluble on expression in E. coli |
| --- | --- |
| MGSDKIHHHHHHMEYVNIKLPYDKKQITAKIYKRNLAGILVSKSENYKNSLSEKELVEKSLDNPIASPKLEELVKGKKNIVLISSDHTRPVPSKIITPILLRRIRSVEPNANIIILVATGFHRPSTHEELVDKYGEEIVKRENIVMHVSTDDSAMVQIGTLPSGGPCIINKIAAEADLLIAEGFIESHFFAGFSGGRKSVLPGIASYKTIMANHCGEFINSNKARTGNIKCNPIHEDMVYAARTAGLKFILNVVLDGNKKIIGSFAGDVEKAHETGCDFVKDLARVKKVPCDIAVSTNGGYPLDQNIYQAVKGMTAAEATNKENGVIIMVAGCRDGHGGEGFYKNLANVKTPEEFLEKAIHTERQKTIPDQWTSQILARILSKHHVIMVSDLVDQKLICGMHMELVSNFEEALERAYKIEGKDAKVTVIPDGLSVIVE | not soluble |
| MKEEKLVTLAIHSYEKAQILKSLLETEGIEAYLHNVNQIQPVISAGVRVRIKETDLPRALSIIEDNKWDQEDPKKRAKNTEEYVLIPVDFSEYTMKICELGFNFAARRGLRVVLMHVYISPFFSTPLTVGDTAVFQLSNEVSLRKEYQRVQR | not soluble |
| MGSDKIHHHHHHMLKGIPHDSPLYEVDEDRGIEYRNCDAIVGFFTIKGDVSDLLPEGLKAYSKPAQGGIWISHYSFSTVGEYHEYLTVIQVEDEQGDMGYYIPYIYVTNDSALAAGRELAGAPKKLANIGLVKELDVVMGYLERPTGKRLVTFVMKPNTRALGGMIDFVLPKPTYLYSVRHLPPIKGKGGVTQLVKWYADIDFHVDPKGERAIFMGPGNITYDSPSVIDPVHKVEIDTLMTALYFQFDMKLGFVDILREY | not soluble |
| MPDHARMPRNLSSNKIAKTIAGEDLDEEEVLEMDAGQSAREEGRFVFECAWEVANKVGGIYTVLRSKAQISTEELGDQYCMFGPMKDGKWRLEVDPIEPENRTIRAAMKRFQADGFRCMYGRWLIEGYPKVILFDLGSGAVKMNEWKHELFEQCKIGIPHEDIESNDAVILGFMVALFLKHFRESVTSYTPLVVAHFHEWQAGVGLLMTRLWKLDIATVYTTHATLLGRHLCAGGADLYNNLDSFDLDAEAGKRKIYHQYCLERAACQTAHIFTTVSEITGLEAEHFLCRKPDVLTPNGLNVVKFAALHEFQNLHAQNKEKINQFIRGHFHGHLDFDLDKTLYFFTAGRYEFSNKGGDMFIESLARLNHYLKTTSDPRHMGVTVVAFLIYPAPANSFNVESLKGQAVTKQLKEAVDRIKEKVGQRIFDICLQGHLPEPEELMSPADNILLKRCIMSLHNSSLPPICTHNMIRADDPVLESLRRTSLFNKPEDRVKVVFHPEFLSSVSPLIGLDYEDFVRGCHLGVFPSYYEPWGYTPAECTVMGIPSVSTNLSGFGCFMQEHVEDHEQKGIYVIDRRHKAAEESVQELAQVMYDFCGQSRRQRIILRNSNEGLSALLDWQNLGVFYRDCRRLALERLHPDVDKIMRDNEGKVPSAATSRRPSIHSSDGEDDE | not soluble |
| MLRGGVNDCKIKWEFLIGNSIDSSPILAKNGTIYLGSSNKNLYAINTDGSVKWFFKSGEIIECRPSIGKDGTIYFGSDKVYAINPDGTEKWRFDTKKAIVSDFTIFEDILYVTSMDGHLYAINPDGTEKWRFKTKKAIYATPIVSEDGTIYVGSNDNYLYAINPDGTEKWRFKTNDAITSAASIGKDGTIYFGSDKVYAINPDGTEKWNFYAGYWTVTRPAISEDGTIYVTSLDGHLYAINPDGTEKWRFKTGKRIESSPVIGNTDTIYFGSYDGHLYAINPDGTEKWNFETGSWIIATPVIDENGTIYFGTRNGKFYALFNLEHHHHHH | soluble |
| MASNQIEGAVVGIRVNDGIAAAPVVLFTHEMPAVPERDFQSEQGEIERVKRAIGVVVQHLQEQAKQPKGEIFSAHSMMLSDPELWASVESRIQTGMIAEQAWIESLQTLADEFRQAESQYMREREADVHDIARQVMVEMTGVTPNAIDIQEPSILLARDLMPSDVAGLDKSKVLGICLSEGGKTSHSAILARAMGIPAMVKAQGCLDAVRAGQVVTIDGFRGHLWFSPSDAIQQELEAQQIEWQSTRQSALASAQQA | not soluble |
| MGSDKIHHHHHHMLSYYGRLSSEVYDIDKPIDHSFRDVEFYIDRLNLCRGHILEPATGTGRVLVPLLEKGFKVDGFDSSKDMLNICRDNCRKKGLNPKLFEAKMESFIQDTRYDAIIVPAGTFLLLHQRADSIRALQNFHKHLCTGGRLIIDILMQTDFSTGTVSTRTWVCSNGDLITLESKVVEVDYINQYTVSHNRYEKWREGVLIQTELERFPLRWYGLEEFKLILESTGFKDIVISSDYKFGQYPSNVKDVITFEAVAIN | not soluble |
| MGHHHHHHSHMSLFSGTIQNLENALSRADIKQKVITNNIANIDTPNYKAKKVSFQNLLDQESSRLEAIKTDYRHVDFSDTDSNYSIVASGDTSYQQNGNNVDVDKEMTELAQNQINYQALVERMNGKFNSLKTVLTGGK | not soluble |
| MYSKILGTGSYLPSQVRTNADLEKMVETSDEWIVARTGIRERRIAADNETVADMAFFAAQNAINMAGIDKHDIDMIIVATTSASHTFPSAACQVQGKLGIKGCPAFDLAAACSGFMYALSIADQHVKSGMCKHVLVIGADALSKTCDPTDRSTIILFGDGAGAVVVGASNEPGILSTHIHADGEFGDLLSLEVPVRGGDSDKWLHMAGNEVFKVAVTQLSKLVVDTLKANNMHKSELDWLVPHQANYRIISATAKKLSMSLDQVVITLDRHGNTSAATVPTALDEAVRDGRIQRGQMLLLEAFGGGFTWGSALVKF | not soluble |
| GPPGPPGPPGPPGPRGRTGPPGPPGPPGPP | soluble |
| MYELYTLLAEYYDTIYRRRIERVKAEIDFVEEIFKEDAKREVRRVLDLACGTGIPTLELAERGYEVVGLDLHEEMLRVARRKAKERNLKIEFLQGDVLEIAFKNEFDAVTMFFSTIMYFDEEDLRKLFSKVAEALKPGGVFITDFPCWFYGGRDGPVVWNEQKGEEKLVIMDWREVEPAVQKLRFKRLVQILRPNGEVKAFLVDDELNIYTPREVRLLAEKYFEKVKIYGNLKRELSPNDMRYWIVGIAKSF | soluble |
| SLLGMNFAMHTTIDTKLVLFGPSENLVTEDDDARNMASKLIENGIITTACINYVKDKPAESKLREMRIVLEPVGKIISDYIKDGYVPVTF | not soluble |
| MSLEKTKLPWDEFFSLNKDINHTYFTPEDFSGDEDLIAKTTEQFVKQEIVPQMENIEQHNYKVSRQLFEKAGELGLLGIEVPEDYGGFELGKAVSGLVAEKMGYAGAFSVSFNIHAGVGTLPYIYYGTKEQKEKYLPKIASGEWIGAYALTEPNAGSDALSAKTSAVLNEEGTAWKLNGEKQWITNAHMADVYVVFAKTNKGMTAFIVERTCEGVSIGLEEKKMGIKGSSTATLILEDVVIPAENVLGEVGKGHHVALNILNFARLKLAFGNIGTAKQAIGLSVQYGKERKQFQTELVDFTMIQEKIANMIIATYGAESAAYRTAGVIDEAIHESDEDLMKKMSQFAIECALNKVNASETLAYIVDEAVQIHGGYGYMQEYEVERLYRDARISRIFEGTNEINRLTVAKMLMKQIEQLEDTEVESDVANVERNHRYILLAKKLLKQSLKTLSKTPGLKIDQEQEYSRVISNMLTDVYVMESAFLRTRKAVSKNGEEKERTKQLITDVICEEGYRKVEEAAISVLSAAVTEEQDRHVILAEIRQLLVPLYTNVFTKKREIAKAIINRGKYIVEGHHHHHH | soluble |
| MGSDKIHHHHHHMIHLAVGRFNIDIIVKLDSIPPIDSSHMTDVLEIMPGGAATNYAVAVTKLGHSAKLLAKVGKSEVVRSLMEKVVELGVGLEYVEELNEKPSATLIFLRNDGTLSMVRRLGASILLTREDVKRRFGLFDVIHFASVSPNVVVRDPYAKLVSYDPGPQAKNIESVDVDILYVNEKEYEMIEDKNIRARFIVIKMGKKGAKIITETEECSVEPIQVEKIVDTTGAGDTFDAAFNVTYSEDKDIVKSLQVASVASGLKVSRIGGISSPTLEEVREYLRKKKPNVICK | not soluble |
| MGSDKIHHHHHHMQGIAFQDAYPDDLSHCYGCGRNNEQGHQLKSYWRGEQTIAHFMPKPFHTAIPGFVYGGLIASLIDCHGTGSASAAAQRALEQAGEQLDEPPRFVTAALNIDYLAPTPMGVELELVGEIKEVKPRKVVVEIALSADGKLCARGHMVAVKMPETMAATSA | not soluble |
| MGSDKIHHHHHHMRVFVARQPIFNRKEQVVAYELLYRESEENVYSAKDGDQATTDLVINSFLNIGIEKLTEGKRCFVNFTESLMFSNLPTSFNPKQLVIEILEDIPITPALISRCKELKKMGYMLALDDFYAINPQDEDLLEKLMSYIDILKIDFLKTTRMERRTILQTYGCRGLIFLAEKVETRKEYKQAVQDGFQLFQGYFFSEPRIISGHDLSTHFYSYYELLNELSKEQPNIKRVTEYIERDLSLSYQILKFLNSSHSRLSQKIESIQQAIMLLGFNEIKRWIYILSFKDLSRKGHSSKHEIIKISLIRAKLCELLARKTSRPQPASYMLIGMFSLIDTLLHREIEEIVQELPLKDEVGQALLGHQNDYYQMLELVKLIESNNWDTCSELGNQLDKEEAYECYLEALEWCHNLMDAK | not soluble |
| MMEIKRVLKDRLSARVCVIGAGPSGIAAIKNLQEHGITNVTVFEKNNQIGGNWVYDEQNEHSSVYETTHIISSKRWSEFEDFPMPVDYPDYPSHSQLLKYFQSYVEHFHLDRYIRFNTVVQKVHRLDDNTWHVIYEDAQGIHEACYDYLLVANGHHWDPFMPVYPGVFDGEILHSHQYKKASIFKGKRVLVVGGGNSACDVAVEISRVAPGTCISMRRGYHIFPKFIFGKPTDVAVAKIQWMPSWLRQKFISLVIRGLQGRYAKYKLMKPDCGPLEIHPTINSELLYFIRHGKIHPRSGISRFEGNTVHFTDRTQGEFDTIIFATGYQISFPFFDKSCIDFSNSTTIPLYRKMMHPEFENLYFIGLCQPQGCIWPLADYQSKIVARIIAGTLKRPDQLHRKIAKEINKPHHRFKSHMRHALEVDYHIFRKELLEMLGQKHKRLKFYPLEHHHHHH | soluble |
| MGSDKIHHHHHHMTRLCRTFQTAPAAIPNDNSAKFLVSGLTSKGFQAPDWLVPDIEDGTAPSMKDEAVDNIIEHIPDHADDFAGDILPRVEWAYDDANARERGIEQVTRLAEAVGEELDGFVFPKVGRLDDVRDAAGVIADAERDAGLPEGTLEMAIILETAPGRSDLREICQYATDSRLSGLVFGPVDYTAELGGRTLDGERPRWDGLLEALSNETSAADIVAIGGPFDQLFHERAGVTYYNAEGYADQVAYEATIGIDGSWSLHPKQTEQANRIHMPTVEEMERDLHKIESFNEAKREGTGAVVVDGQMVDEATYKNFANTVKTVRAIDETHPAQTEAYYDDDLLARARDVELIFG | not soluble |
| MTDVALSQDVSRFLRYLGVERQLSPITLLNYQRQLDAIIALAGETGLKSWQQCDAAIVRSFAVRSRRKGLGPASLALRLSALRSFFDWLVSQGELKANPAKGVSAPKAPRHLPKNIDVDDVNRLLDIDLNDPLAVRDRAMLEVMYGAGLRLSELVGLDIKHLDLDTGEVWVMGKGSKERRLPIGRNAVTWIEHWLDLRGLFASDEEALFLSKLGKRISARNVQKRFAEWGIKQGLNSHVHPHKLRHSFATHMLESSGDLRGVQELLGHANLSTTQIYTHLDFQHLASVYDAAHPRAKRGK | not soluble |
| MSLEVIKHDGPGRLGVIRLEPPVQTPALAGVDFTISPFNSYFNPKEYHDYDFNLAPSIPLSYYTPDEVIEKALKRIETVDYSKFNTFYFPALKRDKYYPRFVELIEENDFDAIYIGNSKVMIKDYRGFVATLRILREKFPNAVLITDLEPFFYPLAVYLGVDAFDVRSLKIYSYEGLGFTPFSPVIWDRPNDPIEFAREMIKIIKIAIQEGKLRYLVENFLPTVMNVGILRIADKEHGDYLEKYTPVHDKTVVFISEHSISRPEVFRWRKRIEERFEPPKGIDLLLIFPCSAKKPYSRSRSHMMYRKVMKEALGEKVHRVHELVVTSPYGVVPREWEWLAKYDIVVTGHWSESEVRFAGELLAQTIEKYPDIPIVAHVEGGYREAVKYAMELVNRDVIFTAVGSSTISKESLDKLKKTLKEFDLRDEGHHHHHH | not soluble |
